# From PMC11320570
# What was measured:
# Test in all cases: ELISA
# 2H12 mouse antibody = biological target: 2H12 mouse antibody
# 3H5 mouse antibody = biological target: 3H5 mouse antibody
# [1] = biological target: 513 engineered and humanized antibody
substance,measurement,setting,value
DENV-2 EDIII wild-type Fc-fusion antigen S298N; S300T,Kd,2H12 mouse antibody,0.71 nM
same,Kd,3H5 mouse antibody,0.82 nM
same,Kd,[1],0.075 nM
DENV-2 EDIII wild-type Fc-fusion antigen S298N; S300T; H317N,Kd,3H5 mouse antibody,0.82 nM
same,Kd,[1],0.081 nM
DENV-2 EDIII wild-type Fc-fusion antigen S298N; S300T; V309N; E311T; H317N,Kd,3H5 mouse antibody,0.78 nM
same,Kd,[1],> 0.265 nM
